Holding throughout (experiment): fluorescence polarization
One series deals with T1, MUT-4G (Caenorhabditis elegans, UniProt Q09487 172-535, N318S;H319N;Q322E).
T1 sequence: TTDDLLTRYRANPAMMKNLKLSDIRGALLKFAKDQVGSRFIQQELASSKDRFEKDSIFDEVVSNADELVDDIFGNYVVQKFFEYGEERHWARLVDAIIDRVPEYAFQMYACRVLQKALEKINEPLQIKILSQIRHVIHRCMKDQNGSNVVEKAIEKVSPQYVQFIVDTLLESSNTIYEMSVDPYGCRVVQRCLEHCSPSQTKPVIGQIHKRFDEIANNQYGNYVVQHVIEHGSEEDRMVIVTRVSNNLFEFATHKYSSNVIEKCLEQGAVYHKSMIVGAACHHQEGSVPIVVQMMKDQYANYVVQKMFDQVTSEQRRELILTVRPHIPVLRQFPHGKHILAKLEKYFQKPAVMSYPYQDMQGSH

Another series deals with T2, PUF-8 WT (FP) (Caenorhabditis elegans, UniProt Q09487 172-535).
T2 sequence: T1 sequence with S147N, N148H, E151Q

In the next series the target is T3, MUT-4A (Caenorhabditis elegans, UniProt Q09487 172-535, N318C;H319R).
T3 sequence: T1 sequence with S147C, N148R, E151Q

Another series deals with T4, MUT-#12 (K513E) (Caenorhabditis elegans, UniProt Q09487 172-535, K513E).
T4 sequence: T1 sequence with S147N, N148H, E151Q, K342E

The target in a further series is T5, MUT-#10 (Q476E) (Caenorhabditis elegans, UniProt Q09487 172-535, Q476E).
T5 sequence: T1 sequence with S147N, N148H, E151Q, Q305E

The target in a further series is T6, MUT-#9 (Q476A) (Caenorhabditis elegans, UniProt Q09487 172-535, Q476A).
T6 sequence: T1 sequence with S147N, N148H, E151Q, Q305A

These results are taken from paper PMC8464079.

Residue numbers refer to the chain shown, from its start.

With UGUAAAUA (ssRNA) [PBE-5A FAM], the Kd with MUT-4G was found to be 239 ± 48 nM; in the series with PUF-8 WT (FP), 2.49 ± 1.5 nM; with MUT-4A, 0.44 ± 0.39 nM; with MUT-#12 (K513E), 209 ± 29.1 nM; in the series with MUT-#10 (Q476E), 519 ± 63.1 nM; with MUT-#9 (Q476A), 63.5 ± 11.1 nM.
